Data taken from the DeepSol protein solubility set.

Test: soluble on expression in E. coli; label from the status in PepcDB or PDB records

Sequence: TSLFTTADHYHTPLGPDGTPHAFFEALRDEAETTPIGWSEAYGGHWVVAGYKEIQAVIQNTKAFSNKGVTFPRYETGEFELMMAGQDDPVHKKYRQLVAKPFSPEATDLFTEQLRQSTNDLIDARIELGEGDAATWLANEIPARLTAILLGLPPEDGDTYRRWVWAITHVENPEEGAEIFAELVAHARTLIAERRTNPGNDIMSRVIMSKIDGESLSEDDLIGFFTILLLGGIDATARFLSSVFWRLAWDIELRRRLIAHPELIPNAVDELLRFYGPAMVGRLVTQEVTVGDITMKPGQTAMLWFPIASRDRSAFDSPDNIVIERTPNRHLSLGHGIHRCLGAHLIRVEARVAITEFLKRIPEFSLDPNKECEWLMGQVAGMLHVPIIFPKGKRLSE
- soluble on expression in E. coli: soluble

Sequence: MGSDKIHHHHHHMLYQLHEMQRAFLRPLAAFTDASSQLFTHPYSPLAYMPMSRQLAAGCELVHRIGKEYQKPAWNLPATEIQGKRVAVIEAVVLDKPFCRLVHFQRDVRRTAGRADPRVLLVAPLSGHHATLLRDTVRALLPAHDVYVTDWVDARMVPQDAGPFHLDDYVRYIQAFLRHLGPDTHVISVCQPTVPVLAAISLMASANDPCQPRSMVMMGGPIDPRESPTQVNRLATTKPYAWFESQLIHAVPAPYPGAGRRVYPGFLQHAGFMAMNPDRHLKSHYDFYLDLLRGDDGDAEAHRRFYDEYNAVLDMPAEFYLDTIRTVFQEWLPGGTWEIDGQLVRPADIRKTSLLTVEGELDDISGQGQTRAAIKLCSGIPAARKSHYTAVGCGHYGIFSGRRWRELICPKIAAFIRQS
- soluble on expression in E. coli: not soluble

Sequence: DNTQHYRELFLDDIPLMDVRAPVEYHKGAFPNTVNRPLMNDIERQKVGTSYKQHGQQAAIALGHELVCGALKAERLAAWKAFAEANPNGYLYCFRGGLRSQIVQQWLKQDAGIDYPRVIGGYKALRNFLFETTRAAVDECDFVLVGGLTGCGKTEVIAALDNSLDLEGHANHRGSSFGRRATPQPAQIDFENRLAIDILKKRHRGVGQFVLEDEGRIVGSCSLPLELYQGMQGYPLVWLEDAFEQRVERILRDYVIDLRSEFERVVGVEEGFAAFSAYLQKSLAGIVKRLGGERYQRLAAILVQALEEQGRDGSVDTHRGWIEGLLKEYYDPMYAFQRQSKEDRVEFRGNQAEVIGYLR
- soluble on expression in E. coli: not soluble

Sequence: MIDWDDLECRVAREESRHQAGIGTCSLALQIGFFFDGLKRNINVDEESQRLTNVGRLFRAHSFEIKASLTSAYSSAKIYVPGLGTLLDDTPSERLDSILDARQQALPEDYADALVEQGKETAVDTVKGVFKEDWSQVLSNKLGDLVTMKSGFDATVSAAKKAATRALLEATEPIRDNPIVAELLMTGVDARVDLAKNKFKESIVLSKKENQLPIKLVQISVFGADLGAALARRFIDELLESVCTKVGNEYRYEDSKVEVIFAGLFDCTRRSSMDMGDTVATISDGAGLVARHPVVGLITTAFGAKVITFDKPLHPAVKKALHLIAAHERREYRPLLPLGPLRSGWREVLCPGISEDVTGGLLPDEQRPSAELCRVPLRQMYETARRAQVPFPNFSILDAKNPRVAQYFIMQDSRLGYSAKKYSEYYSKWVGKMNPTPEAFELHMIHYCFWLGEKLHDYKILRQNVSGSERDKLNAQWGWLIQVGRDAENVLRSRGLSRQMYRGADLVKFFNGIKRVPREADIFFNYFMHDFTSEELKFATLNEQANTMLRNNNFFVPRGIEILAVDDEAAALEHHHHHH
- soluble on expression in E. coli: soluble

Sequence: MKTIAIRDVTGIMEPLPGFSVVRTDGSDGQRSIKLNGYKTTNNQYGYQFVKNENTVVYDDEEYIIKTHRERTYRKGVGVEATAIHRIFDDLRNNYIYDEKTGTLRLDAMLSFALEGSGYTFEIDTTDLPASVRVENFGWNNSLALFRDILEKFGAEFDYKGKKIYVAKKFGIQRDEPFLRYRFNVKDPEKEIDTSSFATYIRGYGKKDDKGNYLFAEYTSPLAKIYGIKHADPVKDERYTDKDSLLAAMKKQLNDNIDISLTFTAIELESMGLRDIKKGDYVWCVIEPFDLNVQLRAVSREDYSDETKSPTFTFGTITKKASDIIASFNTTKKAVDKVIDTSTGKIKDSAIDTTGLTTKSEFQSHVDNKIVHITAEERAAWNAASNSIGDLTFITWSTPTLKNGWIQYTANTESYPIQYGKDAIGTVNIRGAVSSGVVGSSTPVFTLPAGFRPPFPHLFIGVSSVATDGTPQYFRGIIKTNGDVCIENISNKDTPNQFIGIYTQFKAI
- soluble on expression in E. coli: soluble

Sequence: SEMIGGDDTDTEMYGALVTAQSLRLRHLHHCRENQCTSVLVKYIQAPVHLVWSLVRRFDQPQKYKPFISRCTVNGDPEIGCLREVNVKSGLPATTSTERLEQLDDEEHILGINIIGGDHRLKNYSSILTVHPEMIDGRSGTMVMESFVVDVPQGNTKDDTCYFVESLIKCNLKSLACVSERLAAQDITNSIATFCNASNGYREKNHTETNL
- soluble on expression in E. coli: soluble

Sequence: MHKTHSTMSGKSMKVIGVLALQGAFLEHTNHLKRCLAENDYGIKIEIKTVKTPEDLAQCDALIIPGGESTSMSLIAQRTGLYPCLYEFVHNPEKVVWGTCAGLIFLSAQLENESALVKTLGVLKVDVRRNAFGRQAQSFTQKCDFSNFIPGCDNFPATFIRAPVIERILDPIAVKSLYELPVNGKDVVVAATQNHNILVTSFHPELADSDTRFHDWFIRQFVSN
- soluble on expression in E. coli: soluble

Sequence: ARGHRHTCKVMVLKEEAAGSERALALDMREGQRVFHSLIVHFENDIPVQIEDRFVNAQVAPDYLKQDFTLQTPYAYLSQVAPLTEGEHVVEAILAEADECKLLQIDAGEPCLLIRRRTWSGRQPVTAARLIHPGSRHRLEGRFTK
- soluble on expression in E. coli: soluble

Sequence: MSLKKLDYHFHSHFSADSEELPRKHVTEAIAHGLEEICFTEHRDFYFPGMDFSLNLPEYFQEINRLQAEFKDKIKIKIGLEMGIDLRFKSEINQFIDSAPFDFVIASVHEIGDIEVYDGTEFYLQKIKEEAQREYLLACLDVVQNFENYNSFGHLDYVARYGPYTDKSIKFAENREILFEILRALASKEKALEINTRLFDDPKTEQFYSDLLINFKKLGGKFITLGTDSHIAKRDWLSIHKARTLIKKAGFHELATFSGMKIDKNKKSIKEGHHHHHH
- soluble on expression in E. coli: soluble

Sequence: MCLVKDKLKDIISVKSALSFSLKGDFDCPLEENSLFKALQILKNFLKSKNFSHSVIKSLDTLAIEVEKNIPTQAGLGGGSTDAGGLLYHLNQIFDWRLSLEELYSMGSLVGADTNFFISQYKSTNATSYGEVIENFEEEPLENRLEIYAPNHVFCSTKAVYQAYKPETCFSQAKEWLKKPSLECLKTYDRNGLNDLLKPALLTNQALKDIESELGKEWFFSGSGSAFFRLKPMQKGGELEHHHHHH
- soluble on expression in E. coli: not soluble

Sequence: SLGSDADSAGSLIQPMQIPGIIMPGLRRLTIRDLLAQGRTSSNALEYVREEVFTNNADVVAEKALKPESDITFSKQTANVKTIAHWVQASRQVMDDAPMLQSYINNRLMYGLALKEEGQLLNGDGTGDNLEGLNKVATAYDTSLNATGDTRADIIAHAIYQVTESEFSASGIVLNPRDWHNIALLKDNEGRYIFGGPQAFTSNIMWGLPVVPTKAQAAGTFTVGGFDMASQVWDRMDATVEVSREDRDNFVKNMLTILCEERLALAHYRPTAIIKGTFSSGS
- soluble on expression in E. coli: soluble

Sequence: RIRKIIAGYQTELEASQEQEKKARQEKDELMRNMAHDLRTPLTGVMTYVDVMKLENEAYAENMKNLNFISEKVLDIRTQVDNLLDFSIAGSQRPVELDASMDVEYIFGDYLSDVCAQLMKSNYEVDAEGISFKQVKVAVNMAFLTRIFSNLTDNIYKYADNKKPVVMKTAFTKKTFSVEIGNGVCDNKTLLKSAGIGLKSVDAMMQRMNGSMSFKREHGKFWVKLEFPIV
- soluble on expression in E. coli: not soluble

Sequence: KARGNVGFVAGSSYGTGSVWTRNNEVVVLTASHVVGRANMATLKIGDAMLTLTFKKNGDFAEAVTTQSELPGNWPQLHFAQPTTGPASWCTATGDEEGLLSGEVCLAWTTSGDSGSAVVQGDAVVGVHTGSNTSGVAYVTTPSGKLLGADTVTLSSLSKHFTGPLTSIPKDIPDNIIADVDAVPRSLAMLIDGLSNRE
- soluble on expression in E. coli: soluble

Sequence: MGSDKIHHHHHHALGDQTLRKGQSHPDVKELQEALKKKGFFNYHTSTGYFGSITEDAVREFQMKHGLQVDGIAGPQTLNALLSQMNGNNGGQQTSSSAPNSTSNSTILRFGSSGQAVRDLQEKLKAKGYYNHSITGQYGRITTEAVREFQRANRLTVDGIAGPQTLAALTNQAPAASAPQYNAPVQQTTVLRQGSRGDAVRDLQRSLKDLGYYKSSIDGIFGAGTTTAVREFQRKMGLTVDGVAGPQTLNALHVNPTPNTSNGQSSSSGGNTASSGNRGATITNIVANASELIGTPYVWGGTTPRGFDCSGFVQYVFAQQGVSIPRTVAQMWNAGTSVSQPSVGDIVFFDTTGGPSHNGIYIGNNQFIHSGSSTGVTIASMNNSYWASRYLGAKRLY
- soluble on expression in E. coli: not soluble

Sequence: MSLGSDIPTLRAALARSDAWLVACFCAAWCDTCQQYRPKLLELARARPGHTFAWIDIEDHPDLLGEEDVENFPTLLVQAHGKVLFYGPMLPHIGHLERLLDSLDPQGREGHHHHHH
- soluble on expression in E. coli: soluble

Sequence: MGSDKIHHHHHHMKKLNLQCDLFNNNNLNFSDKGPLQDVFIDKKIIKEWQAKIITHQSPIFKSGHIDVNQYSLFESSSDELNASFNPIELTPLPLSFWRWPKAMHEGPAVYFVMDEIIDSGENIILYIGETISAEKRWKGEHDCKDYISSYSDSLHKANVKAKLSIRFWLDVPTKTKERRKLEQKLIQAWLPPFNKETREIWATPFTSQIN
- soluble on expression in E. coli: not soluble

Sequence: MTEEMNQIDVQVPEVGDVVKGIVTKVEDKHVDVEIINVKQSGIIPISELSSLHVEKASDVVKVDDELDLKVTKVEDDALILSKRAVDADRAWEDLEKKFETKEVFEAEVKDVVKGGLVVDIGVRGFIPASLVEAHFVEDFTDYKGKTLSLLVVELDRDKNRVILSHRAVVESEQANKKQELLQSLEVGSVLDGKVQRLTDFGAFVDIGGIDGLVHISQLSHSHVEKPSDVVEEGQEVKVKVLSVDRDNERISLSIKDTLPGPWNQIGEKVKPGDVLEGTVQRLVSFGAFVEILPGVEGLVHISQISNKHIGTPHEVLEEGQTVKVKVLDVNENEERISLSMRELEETPKADQEDYRQYQAKEETSTGFQLGDLIGDKLNKLKLEHHHHHH
- soluble on expression in E. coli: soluble

Sequence: MSRLSSLLILVCIGALLVETFAAPDEPIIVRSKRQQCRCVKNPNGGLTCSCAKGPADGSSSSIGSGVQYDAPQSADIANQLTAMSQQTTGMSGARCGCIQIVIQGAPQYNCQCGDQSGNPLPTTTTMAPTTSSTTTTTTTTTQAPTTTSTTTTQSPVSYPQVPTQTQGSNGACNCIMISITSPQTAQYQCQCAQPQQQQQQQVQYDTYEYAPVQTTPTPMPTTQVPTTQAPTTQAPTMPTSSSPVQYADTAATQYPLTTTCVMYVNVPTTACSCLPQYDQCAQNVCCLKSKFRSYKKAEETQPSTLDVLMNVLQTIKTKLE
- soluble on expression in E. coli: not soluble

Sequence: MGSDKIHHHHHHMLSDKQKKHILVNRDGLKYYTVEGLEKVHEEMLRLLLIIDTIAKENNIPYWIDGGSLIGIVRHKGFIPWDDDLDISLLKKDYLRLIKEISMYCEMHNDVALFYNEPLVEHTCNFFASKKVFSRTQGSCVLVPVKIDIRPVNCIVKNKDNVIENNIYRDTANYIIFGKSYGYMKKTLSHKNEQMDFLEYYNYKYGLVDSGLENVIMVHPYFEFSNTFELTYNDLFPLKMLQFENMLLPVPNNYDYLLKELYGDYMSYPNICHRAPVACQIYQRQLKDNRFNLCLSMFKHTNRGLLYRMRIILVQIRLLGVFEYMKIKIYE
- soluble on expression in E. coli: not soluble

Sequence: GMTSNGQQGKPNLPEKDNLPRELGTQRINSPIARMGMFGAKTTGDTSGYGRLRVYRHVPAAAQRPYSDPSDPRTAYFDEVADALERSLKEIGTPYDTAISRVVVDRGEITFHVQREHLLDVATRLRDDPALRFELCLGVTGVHYPEDEGNELHAVYALRSITHNYEIRLEVSCPDSDPHIPSIVSVYPTNDWHEREAWDFFGIIFDGHPALTR
- soluble on expression in E. coli: soluble
